# Measured values as given in US20180334493A1 (Takeda / Millennium, published 2018).
# B1: recombinant human C1 esterase inhibitor (rhC1-INH) (other)
# chain: NPNATSSSSQDPESLQDRGEGKVATTVISKMLFVEPILEVSSLPTTNSTTNSATKITANTTDEPTTQPTTEPTTQPTIQPTQPTTQLPTDSPTQPTTGSFCPGPVTLCSDLESHSTEAVLGDALVDFSLKLYHAFSAMKKVETNMAFSPFSIASLLTQVLLGAGQNTKTNLESILSYPKDFTCVHQALKGFTTKGVTSVSQIFHSPDLAIRDTFVNASRTLYSSSPRVLSNNSDANLELINTWVAKNTNNKISRLLDSLPSDTRLVLLNAIYLSAKWKTTFDPKKTRMEPFHFKNSVIKVPMMNSKKYPVAHFIDQTLKAKVGQLQLSHNLSLVILVPQNLKHRLEDMEQALSPSVFKAIMEKLEMSKFQPTLLTLPRIKVTTSQDMLSIMEKLEFFDFSYDLNLCGLTEDPDLQVSAMQHQTVLELTETGVEAAAASAISVARTLLVFEVQQPFLFVLWDQQHKFPVFMGRVYDPRA
# modifications: heavily N- and O-glycosylated, sialylated (CHO-expressed)
# Target: T1, C1 esterase (UniProt P09871 16-688, limits assumed)
# T1 sequence (looked up): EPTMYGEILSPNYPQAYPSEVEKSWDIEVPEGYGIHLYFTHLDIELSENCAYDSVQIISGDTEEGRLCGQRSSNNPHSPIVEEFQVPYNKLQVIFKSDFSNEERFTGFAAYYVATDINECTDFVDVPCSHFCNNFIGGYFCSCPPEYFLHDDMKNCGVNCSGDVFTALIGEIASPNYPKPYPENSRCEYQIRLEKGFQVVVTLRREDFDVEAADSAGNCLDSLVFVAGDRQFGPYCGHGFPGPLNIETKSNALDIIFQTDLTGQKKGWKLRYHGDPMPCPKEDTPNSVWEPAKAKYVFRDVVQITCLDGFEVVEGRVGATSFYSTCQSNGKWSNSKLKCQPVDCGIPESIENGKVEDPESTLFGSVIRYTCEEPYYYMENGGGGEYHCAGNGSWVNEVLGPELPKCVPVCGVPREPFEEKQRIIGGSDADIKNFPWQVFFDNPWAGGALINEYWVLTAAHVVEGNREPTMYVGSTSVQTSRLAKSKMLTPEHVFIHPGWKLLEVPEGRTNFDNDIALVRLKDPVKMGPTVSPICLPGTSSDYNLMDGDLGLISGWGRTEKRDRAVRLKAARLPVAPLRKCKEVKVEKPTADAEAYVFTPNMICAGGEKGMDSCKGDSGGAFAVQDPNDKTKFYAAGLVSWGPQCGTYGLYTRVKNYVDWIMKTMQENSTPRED
# Assay: cell-based or functional assay
binder,measurement,value
B1,potency relative to the initial development reference standard,121%
